Assay [1] addresses Fas death domain (UniProt P25445).
Assay [2] concerns the target FADD death domain, His6-tagged (UniProt Q13158). The assay can be described thus: pull-down.
Assay [3] concerns the target Fas death domain (UniProt P25445). The assay can be described thus: crystal structure.

Read-outs that look alike come from different tables or passages of the source.

Chain of UniProt Q13158 (Q13158 93-191): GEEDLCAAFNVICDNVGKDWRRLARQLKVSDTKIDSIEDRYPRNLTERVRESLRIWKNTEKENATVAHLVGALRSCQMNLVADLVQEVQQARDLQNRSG

What is called stoichiometry N is the number of molecules, sites or subunits per partner or assembly. Consider “Fas death domain (from UniProt P25445 230-314) (domain or fragment)”, for which the stoichiometry N with Fas death domain [1] and with Fas death domain [3] was 4 in each case. This substance also came in with a concentration at which the complex dissociates in assay [2] of 50 µM.
